In US11110158B2, “Prostate-associated antigens and vaccine-based immunotherapy regimens” (Pfizer Inc., priority 2012, dated 2021):

System: PSA
Experiment: Sandwich ELISA, anti-PSA antibody response in vaccinated mice
Assay type: in vivo, mouse
Conditions: Table 15; for # of positive: mice with anti-PSA antibody response / mice tested

B1: PSA membrane-bound: PSA amino acids 25-261 linked to human PSMA transmembrane domain (aa 15-54), SEQ ID NO: 19 (protein)
chain: MASARRPRWLCAGALVLAGGFFLLGFLFGWFIKSSNEATNITPGIVGGWECEKHSQPWQVLVASRGRAVCGGVLVHPQWVLTAAHCIRNKSVILLGRHSLFHPEDTGQVFQVSHSFPHPLYDMSLLKNRFLRPGDDSSHDLMLLRLSEPAELTDAVKVMDLPTQEPALGTTCYASGWGSIEPEEFLTPKKLQCVDLHVISNDVCAQVHPQKVTKFMLCAGRWTGGKSTCSGDSGGPLVCNGVLQGITSWGSEPCALPERPSLYTKVVHYRKWIKDTIVANP
- ELISA (OD = 1.0) Average (SD) (anti-PSA antibody titer at OD of 1.0): 4838 (835)
- # of positive: 6/6

B2: PSA secreted: native full length human PSA (amino acids 1-261), SEQ ID NO: 15 (protein, listed as Homo sapiens)
chain: MASWVPVVFLTLSVTWIGAAPLILSRIVGGWECEKHSQPWQVLVASRGRAVCGGVLVHPQWVLTAAHCIRNKSVILLGRHSLFHPEDTGQVFQVSHSFPHPLYDMSLLKNRFLRPGDDSSHDLMLLRLSEPAELTDAVKVMDLPTQEPALGTTCYASGWGSIEPEEFLTPKKLQCVDLHVISNDVCAQVHPQKVTKFMLCAGRWTGGKSTCSGDSGGPLVCNGVLQGITSWGSEPCALPERPSLYTKVVHYRKWIKDTIVANP
- # of positive: 2/6
